Results published in US20150164996A1 (Sanofi, published 2015).
Like-named read-outs stand apart in the source and are kept apart here. Square brackets hold non-standard residues; d marks the D form. Ends that are not written are not given here. Aib = CC(C)(N)C(=O)O

T1: human GIP receptor (human, UniProt P48546 22-466)
T1 sequence (looked up): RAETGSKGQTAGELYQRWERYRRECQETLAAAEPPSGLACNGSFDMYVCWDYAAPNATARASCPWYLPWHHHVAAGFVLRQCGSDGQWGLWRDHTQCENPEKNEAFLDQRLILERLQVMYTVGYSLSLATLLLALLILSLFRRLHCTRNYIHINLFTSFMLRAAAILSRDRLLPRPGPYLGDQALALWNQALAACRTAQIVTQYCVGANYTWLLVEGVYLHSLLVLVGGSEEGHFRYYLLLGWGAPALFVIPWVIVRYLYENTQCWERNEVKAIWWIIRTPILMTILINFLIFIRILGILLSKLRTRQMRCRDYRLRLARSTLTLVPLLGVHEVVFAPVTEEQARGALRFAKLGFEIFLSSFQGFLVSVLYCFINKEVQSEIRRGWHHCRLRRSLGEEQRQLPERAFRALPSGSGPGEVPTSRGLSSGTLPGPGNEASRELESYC


How the values were obtained:
Assay in all cases: cell-based or functional assay
[1] = molecular target: human glucagon receptor (human) (UniProt P47871)
[2] = molecular target: human GLP-1 receptor (human) (UniProt P43220)
human glucagon receptor = human glucagon receptor (human, UniProt P47871 26-477)
human GIP receptor [3] = molecular target: T1, human GIP receptor
human GLP-1 receptor [4] = molecular target: T2, human GLP-1 receptor (human, UniProt P43220 24-463)
human GIP receptor [5] = molecular target: T1, human GIP receptor; remark: listed apart in the source
human GLP-1 receptor [6] = molecular target: T2, human GLP-1 receptor; remark: listed apart in the source
Target sequence in this assay (P43220 24-463): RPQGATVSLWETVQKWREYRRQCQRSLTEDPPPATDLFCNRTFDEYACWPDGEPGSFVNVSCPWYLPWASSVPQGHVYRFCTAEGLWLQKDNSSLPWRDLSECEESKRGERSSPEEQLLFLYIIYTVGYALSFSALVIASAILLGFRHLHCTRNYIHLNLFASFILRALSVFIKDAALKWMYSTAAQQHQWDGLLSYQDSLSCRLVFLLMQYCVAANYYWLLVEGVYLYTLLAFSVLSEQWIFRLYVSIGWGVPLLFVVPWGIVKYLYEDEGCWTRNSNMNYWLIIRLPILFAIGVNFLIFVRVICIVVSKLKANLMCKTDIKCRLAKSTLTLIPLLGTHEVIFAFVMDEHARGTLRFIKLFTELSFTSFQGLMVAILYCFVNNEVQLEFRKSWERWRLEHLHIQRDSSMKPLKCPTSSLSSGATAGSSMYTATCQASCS

Chain of human glucagon receptor (P47871 26-477): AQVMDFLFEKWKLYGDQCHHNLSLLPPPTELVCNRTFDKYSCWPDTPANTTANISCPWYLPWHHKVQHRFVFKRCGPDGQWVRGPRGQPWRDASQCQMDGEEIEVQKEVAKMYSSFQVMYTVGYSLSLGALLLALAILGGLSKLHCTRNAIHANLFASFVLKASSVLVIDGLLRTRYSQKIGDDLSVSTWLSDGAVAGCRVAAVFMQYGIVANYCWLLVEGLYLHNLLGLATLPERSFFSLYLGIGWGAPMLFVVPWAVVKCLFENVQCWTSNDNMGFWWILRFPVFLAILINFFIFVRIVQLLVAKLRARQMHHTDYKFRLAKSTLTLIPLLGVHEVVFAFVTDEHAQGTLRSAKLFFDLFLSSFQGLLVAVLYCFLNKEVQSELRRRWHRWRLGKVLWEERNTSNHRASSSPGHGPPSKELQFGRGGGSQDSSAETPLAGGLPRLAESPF
Chain of human glucagon receptor (human) (P47871 26-477): as above
Chain of human GLP-1 receptor (human) (P43220 24-463): as the sequence (P43220 24-463) above

Row | Molecule | EC50 hGlucagon R [pM] (cAMP formation, HTRF, HEK-293 cells) [1] | EC50 hGLP-1 R [pM] (cAMP formation, HTRF, HEK-293 cells) [2] | EC50 hGLUC R [pM] (cAMP formation, HTRF, HEK-293 cells) (human glucagon receptor) | EC50 hGIP R [pM] (cAMP formation, HTRF, HEK-293 cells) (human GIP receptor [3]) | EC50 hGLP-1 R [pM] (cAMP formation, HTRF, HEK-293 cells) (human GLP-1 receptor [4]) | EC50 hGIP R [pM] (cAMP formation, HTRF, HEK-293 cells) (human GIP receptor [5]) | EC50 hGLP-1 R [pM] (cAMP formation, HTRF, HEK-293 cells) (human GLP-1 receptor [6])
1 | exendin-4 (peptide) | > 1e+07 pM | 0.4 pM | – | – | – | – | –
2 | Y[Aib]EGTFTSDLSKLLDKEAVRLFIEWLKAGGPSSGAPPPS-NH2 (N-terminus assumed; SMILES CC[C@H](C)[C@H](NC(=O)[C@H](Cc1ccccc1)NC(=O)[C@H](CC(C)C)NC(=O)[C@H](CCCNC(=N)N)NC(=O)[C@@H](NC(=O)[C@H](C)NC(=O)[C@H](CCC(=O)O)NC(=O)[C@H](CCCCN)NC(=O)[C@H](CC(=O)O)NC(=O)[C@H](CC(C)C)NC(=O)[C@H](CC(C)C)NC(=O)[C@H](CCCCN)NC(=O)[C@H](CO)NC(=O)[C@H](CC(C)C)NC(=O)[C@H](CC(=O)O)NC(=O)[C@H](CO)NC(=O)[C@@H](NC(=O)[C@H](Cc1ccccc1)NC(=O)[C@@H](NC(=O)CNC(=O)[C@H](CCC(=O)O)NC(=O)C(C)(C)NC(=O)[C@@H](N)Cc1ccc(O)cc1)[C@@H](C)O)[C@@H](C)O)C(C)C)C(=O)N[C@@H](CCC(=O)O)C(=O)N[C@@H](Cc1c[nH]c2ccccc12)C(=O)N[C@@H](CC(C)C)C(=O)N[C@@H](CCCCN)C(=O)N[C@@H](C)C(=O)NCC(=O)NCC(=O)N1CCC[C@H]1C(=O)N[C@@H](CO)C(=O)N[C@@H](CO)C(=O)NCC(=O)N[C@@H](C)C(=O)N1CCC[C@H]1C(=O)N1CCC[C@H]1C(=O)N1CCC[C@H]1C(=O)N[C@@H](CO)C(N)=O) [SEQ ID NO: 9] | – | – | 149000 pM | 13 pM | 2.2 pM | – | –
3 | Y[Aib]EGTFTSDLSKLLEEEAVRLFIEWLKAGGPSSGAPPPS-NH2 (N-terminus assumed; SMILES CC[C@H](C)[C@H](NC(=O)[C@H](Cc1ccccc1)NC(=O)[C@H](CC(C)C)NC(=O)[C@H](CCCNC(=N)N)NC(=O)[C@@H](NC(=O)[C@H](C)NC(=O)[C@H](CCC(=O)O)NC(=O)[C@H](CCC(=O)O)NC(=O)[C@H](CCC(=O)O)NC(=O)[C@H](CC(C)C)NC(=O)[C@H](CC(C)C)NC(=O)[C@H](CCCCN)NC(=O)[C@H](CO)NC(=O)[C@H](CC(C)C)NC(=O)[C@H](CC(=O)O)NC(=O)[C@H](CO)NC(=O)[C@@H](NC(=O)[C@H](Cc1ccccc1)NC(=O)[C@@H](NC(=O)CNC(=O)[C@H](CCC(=O)O)NC(=O)C(C)(C)NC(=O)[C@@H](N)Cc1ccc(O)cc1)[C@@H](C)O)[C@@H](C)O)C(C)C)C(=O)N[C@@H](CCC(=O)O)C(=O)N[C@@H](Cc1c[nH]c2ccccc12)C(=O)N[C@@H](CC(C)C)C(=O)N[C@@H](CCCCN)C(=O)N[C@@H](C)C(=O)NCC(=O)NCC(=O)N1CCC[C@H]1C(=O)N[C@@H](CO)C(=O)N[C@@H](CO)C(=O)NCC(=O)N[C@@H](C)C(=O)N1CCC[C@H]1C(=O)N1CCC[C@H]1C(=O)N1CCC[C@H]1C(=O)N[C@@H](CO)C(N)=O) [SEQ ID NO: 10] | – | – | 137000 pM | 1.3 pM | 1 pM | – | –
4 | Y[Aib]EGTFTSDLSKLLEKEAVRLFIEWLKAGGPSSGAPPPS-NH2 (N-terminus assumed; SMILES CC[C@H](C)[C@H](NC(=O)[C@H](Cc1ccccc1)NC(=O)[C@H](CC(C)C)NC(=O)[C@H](CCCNC(=N)N)NC(=O)[C@@H](NC(=O)[C@H](C)NC(=O)[C@H](CCC(=O)O)NC(=O)[C@H](CCCCN)NC(=O)[C@H](CCC(=O)O)NC(=O)[C@H](CC(C)C)NC(=O)[C@H](CC(C)C)NC(=O)[C@H](CCCCN)NC(=O)[C@H](CO)NC(=O)[C@H](CC(C)C)NC(=O)[C@H](CC(=O)O)NC(=O)[C@H](CO)NC(=O)[C@@H](NC(=O)[C@H](Cc1ccccc1)NC(=O)[C@@H](NC(=O)CNC(=O)[C@H](CCC(=O)O)NC(=O)C(C)(C)NC(=O)[C@@H](N)Cc1ccc(O)cc1)[C@@H](C)O)[C@@H](C)O)C(C)C)C(=O)N[C@@H](CCC(=O)O)C(=O)N[C@@H](Cc1c[nH]c2ccccc12)C(=O)N[C@@H](CC(C)C)C(=O)N[C@@H](CCCCN)C(=O)N[C@@H](C)C(=O)NCC(=O)NCC(=O)N1CCC[C@H]1C(=O)N[C@@H](CO)C(=O)N[C@@H](CO)C(=O)NCC(=O)N[C@@H](C)C(=O)N1CCC[C@H]1C(=O)N1CCC[C@H]1C(=O)N1CCC[C@H]1C(=O)N[C@@H](CO)C(N)=O) [SEQ ID NO: 8] | – | – | 79000 pM | 2.3 pM | 1.2 pM | – | –
5 | Y[Aib]EGTFTSDLSILLEEEAVRLFIEWLKAGGPSSGAPPPS-NH2 (N-terminus assumed; SMILES CC[C@H](C)[C@H](NC(=O)[C@H](CO)NC(=O)[C@H](CC(C)C)NC(=O)[C@H](CC(=O)O)NC(=O)[C@H](CO)NC(=O)[C@@H](NC(=O)[C@H](Cc1ccccc1)NC(=O)[C@@H](NC(=O)CNC(=O)[C@H](CCC(=O)O)NC(=O)C(C)(C)NC(=O)[C@@H](N)Cc1ccc(O)cc1)[C@@H](C)O)[C@@H](C)O)C(=O)N[C@@H](CC(C)C)C(=O)N[C@@H](CC(C)C)C(=O)N[C@@H](CCC(=O)O)C(=O)N[C@@H](CCC(=O)O)C(=O)N[C@@H](CCC(=O)O)C(=O)N[C@@H](C)C(=O)N[C@H](C(=O)N[C@@H](CCCNC(=N)N)C(=O)N[C@@H](CC(C)C)C(=O)N[C@@H](Cc1ccccc1)C(=O)N[C@H](C(=O)N[C@@H](CCC(=O)O)C(=O)N[C@@H](Cc1c[nH]c2ccccc12)C(=O)N[C@@H](CC(C)C)C(=O)N[C@@H](CCCCN)C(=O)N[C@@H](C)C(=O)NCC(=O)NCC(=O)N1CCC[C@H]1C(=O)N[C@@H](CO)C(=O)N[C@@H](CO)C(=O)NCC(=O)N[C@@H](C)C(=O)N1CCC[C@H]1C(=O)N1CCC[C@H]1C(=O)N1CCC[C@H]1C(=O)N[C@@H](CO)C(N)=O)[C@@H](C)CC)C(C)C) [SEQ ID NO: 11] | – | – | 529000 pM | 0.9 pM | 1.4 pM | – | –
6 | YAEGTFTSDVSIYLEGQAAKEFIAWLVKGR (ends and bridges not checked) [Tyr(1)Ile(12)-GLP1] | – | – | – | – | – | 3660 pM | 5 pM
